This is an account of results in patent publication US20170189505A1.

The assay deals with HLA-A*24 (human). As to the kind of experiment: UV peptide exchange, anti-b2m ELISA.

Molecule AYVVFVSTL [SEQ ID No 207 peptide …] came in with a peptide exchange yield of 20 to 49%.

On to AYTLIAPNI [SEQ ID No 169 peptide …], for which the peptide exchange yield is 50 to 75%.

For the molecule NYYEVHKELF [SEQ ID No 270 peptide …], the peptide exchange yield lay in the range of 50 to 75%.

VYVGGGQIIHL [SEQ ID No 174 peptide …] came in with a peptide exchange yield of 50 to 75%.

In turn, RYAEEVGIF [SEQ ID No 199 peptide …] displayed a peptide exchange yield of 50 to 75%.

The molecule LYITEPKTI [SEQ ID No 287 peptide …] had a peptide exchange yield of 50 to 75%.

For YYVESGKLF [SEQ ID No 166 peptide …], the peptide exchange yield was > 75%.

YFIDSTNLKTHF [SEQ ID No 269 peptide …] came in with a peptide exchange yield of 50 to 75%.

For EYSLFPGQVVI [SEQ ID No 197 peptide …], the peptide exchange yield was in the range of 50 to 75%.

For VYTLDIPVL [SEQ ID No 160 peptide …], the peptide exchange yield is > 75%.

For TYSVSFPMF [SEQ ID No 195 peptide …], the peptide exchange yield was > 75%.

Consider VYQGHTALL [SEQ ID No 277 peptide …], for which the peptide exchange yield is > 75%.

Molecule VFTRVSSFL [SEQ ID No 162 peptide …] had a peptide exchange yield of 50 to 75%.

LFIPSSKLLFL [SEQ ID No 171 peptide …] showed a peptide exchange yield of 50 to 75%.

TYGDAGLTYTF [SEQ ID No 283 peptide …] gave a peptide exchange yield of 50 to 75%.

KYQDILETI [SEQ ID No 168 peptide …]: the peptide exchange yield was > 75%.

Molecule HYPPVQVLF [SEQ ID No 285 peptide …] showed a peptide exchange yield of 50 to 75%.

Regarding TYELRYFQI [SEQ ID No 204 peptide …], the peptide exchange yield was > 75%.

Take DYTTWTALL [SEQ ID No 165 peptide …]: the peptide exchange yield is > 75%.

As to RYLNKAFHI [SEQ ID No 284 peptide …], the peptide exchange yield lay within 50 to 75%.

VYEDQVGKF [SEQ ID No 170 peptide …]: the peptide exchange yield fell in the range of 20 to 49%.

EYNQWFTKL [SEQ ID No 176 peptide …] gave a peptide exchange yield of 50 to 75%.

For LYNKGFIYL [SEQ ID No 159 peptide …], the peptide exchange yield was > 75%.

VYVSDIQEL [SEQ ID No 288 peptide …] registered a peptide exchange yield of 50 to 75%.

Consider TYKDEGNDYF [SEQ ID No 209 peptide …], for which the peptide exchange yield is 50 to 75%.

Turning to DYLKGLASF [SEQ ID No 163 peptide …], the peptide exchange yield was > 75%.

In the case of KYPVEWAKF [SEQ ID No 289 peptide …], the peptide exchange yield was > 75%.

On to TFSVSSHLF [SEQ ID No 222 peptide …], for which the peptide exchange yield was 50 to 75%.

Regarding KFSSFSLFF [SEQ ID No 164 peptide …], the peptide exchange yield lay in the range of 50 to 75%.

Take IYSWILDHF [SEQ ID No 173 peptide …]: the peptide exchange yield was > 75%.

In the case of VYWDSAGAAHF [SEQ ID No 202 peptide …], the peptide exchange yield was > 75%.

Consider HYSQELSLLYL [SEQ ID No 158 peptide …], for which the peptide exchange yield is > 75%.

IYATEAHVF [SEQ ID No 201 peptide …] returned a peptide exchange yield of 50 to 75%.

In turn, PYRLIFEKF [SEQ ID No 281 peptide …] came in with a peptide exchange yield of 20 to 49%.

Take YYGPSLFLL [SEQ ID No 200 peptide …]: the peptide exchange yield lay in the range of 50 to 75%.

In the case of YYKSTSSAF [SEQ ID No 218 peptide …], the peptide exchange yield is 50 to 75%.

Consider QYLGQIQHI [SEQ ID No 268 peptide …], for which the peptide exchange yield was 50 to 75%.

NYINRILKL [SEQ ID No 167 peptide …]: the peptide exchange yield was > 75%.

As for IYLVSIPEL [SEQ ID No 161 peptide …], the peptide exchange yield was > 75%.

Consider RYPDNLKHL [SEQ ID No 286 peptide …], for which the peptide exchange yield lay within 20 to 49%.

LYIDRPLPYL [SEQ ID No 196 peptide …] came in with a peptide exchange yield of 50 to 75%.

For the molecule YYEVHKELF [SEQ ID No 175 peptide …], the peptide exchange yield is > 75%.
